According to patent US6312690, “Monoclonal recombinant anti-rhesus D (D7C2) antibody” (Institut Pasteur, dated 2001):

T1: Rhesus D antigen (human, UniProt Q02161)
T1 sequence: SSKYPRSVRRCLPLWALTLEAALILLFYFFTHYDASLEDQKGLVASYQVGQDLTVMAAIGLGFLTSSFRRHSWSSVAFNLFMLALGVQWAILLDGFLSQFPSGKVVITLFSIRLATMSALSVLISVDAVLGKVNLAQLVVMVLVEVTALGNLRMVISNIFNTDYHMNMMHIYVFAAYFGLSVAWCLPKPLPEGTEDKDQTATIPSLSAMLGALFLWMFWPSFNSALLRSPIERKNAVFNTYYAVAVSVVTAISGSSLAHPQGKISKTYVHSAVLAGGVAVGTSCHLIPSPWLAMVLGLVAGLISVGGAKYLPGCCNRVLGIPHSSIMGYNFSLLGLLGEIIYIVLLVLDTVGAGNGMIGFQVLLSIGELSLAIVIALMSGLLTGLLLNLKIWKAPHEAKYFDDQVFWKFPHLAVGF


Columns and labels:
[1] = target: T1, Rhesus D antigen
[2] = target: T1, Rhesus D antigen; experiment: agglutination titre on a pool of papain-treated R1/r red blood cells, one hour at 37° C.
[3] = target: T1, Rhesus D antigen; experiment: agglutination of red blood cells

| % specific lysis (ADCC test, 51Cr release) (% specific lysis) [1] | titre (titre (1/x dilution)) [2] | binding result [3] | Molecule |
| --- | --- | --- | --- |
| 0 | – | – | "irrelevant" recombinant antibody (IgG1, κ) directed against a protein other than the Rhesus antigen |
| 93.3 | 512 | – | r-IgG-D7C2 recombinant monoclonal antibody (antibody, V domains shown) VH: QVQLEQWGAGLLKPSETLSLTCTVYGGSFSGYYWSWIRQPPGKGLEWIGEINHSGSTNYNPSLKSRVTISVDTSKNQFSLKLNSVTAADTAVYYCARAPEYKWKYHGDWFDPWGQGTTVTVSS VL: DIELTQDPAVSVALGQTVRITCQGDSLRTYYASWYQQKPGQAPVLVIYGKNNRPSGIPDRFSGSSSGNTASLTITGAQAEDEADYFCNSGGKVFGGGTKLTVLG |
| – | – | binds | IgM-D7C2 human parental monoclonal antibody (antibody, V domains shown) VH: QVQLQQWGAGLLKPSETLSLTCTVYGGSFSGYYWSWIRQPPGKGLEWIGEINHSGSTNYNPSLKSRVTISVDTSKNQFSLKLNSVTAADTAVYYCARAPEYKWKYHGDWFDPWGQGTTVTVSS VL: QSVLTQDPAVSVALGQTVRITCQGDSLRTYYASWYQQKPGQAPVLVIYGKNNRPSGIPDRFSGSSSGNTASLTITGAQAEDEADYFCNSGGKVFGGGTKLTVLG |
